From US8877192B2, “Rage fusion proteins and methods of use” (TransTech Pharma, LLC, priority 2004, dated 2014) come the findings set out here.

For data set [1], the system named is amyloid-beta (A-beta). Kind of data set: Competition of a RAGE ligand with immobilized amyloid-beta for binding to the fusion protein. The settings on record: TTP-4000 initial solution diluted 1:10 or 1:30; RAGE ligand FAC 10 μM. The procedure:
The fusion protein of the present invention may also be used to identify compounds having the ability to bind to RAGE.
Known RAGE ligands were coated onto the surface of Maxisorb plates at a concentration of 5 micrograms per well. Plates were incubated at 4° C. overnight. Following ligand incubation, plates were aspirated and a blocking buffer of 1% BSA in 50 mM imidizole buffer (pH 7.2) was added to the plates for 1 hour at room temperature. The plates were then aspirated and/or washed with wash buffer (20 mM Imidizole, 150 mM NaCl, 0.05% Tween-20, 5 mM CaCl2 and 5 mM MgCl2, pH 7.2). […] The fusion protein was added at increasing dilutions of the initial sample. The RAGE fusion protein was allowed to incubate with the immobilized ligand at 37° C. for one hour after which the plate was washed and assayed for binding of the fusion protein. Binding was detected by the addition of an immunodetection complex containing a monoclonal mouse anti-human IgG1 diluted 1:11,000 to a final assay concentration (FAC) of 21 ng/100 μL, a biotinylated goat anti-mouse IgG diluted 1:500, to a FAC of […], and an avidin-linked alkaline phosphatase. […] Binding of the complex to the immobilized fusion protein was quantified by measuring conversion of PNPP to para-nitrophenol (PNP) which was measured spectrophotometrically at 405 nm. […]

Data set [2] deals with transgenic mice expressing the human Swedish mutant amyloid precursor protein (APP). Kind of data set: Mouse model of AD (APP transgenic mice). The data set is classed as in vivo. On the procedure: Experiments were performed to evaluate whether TTP-4000 could affect amyloid formation and cognitive dysfunction in a mouse model of AD. The experiments utilized transgenic mice expressing the human Swedish mutant amyloid precursor protein (APP) under the control of the PDGF-B chain promoter. Over time, these mice generate high levels of the RAGE ligand, amyloid beta (Aβ).
The APP mice (male) used in this experiment were designed by microinjection of the human APP gene (with the Swedish and London mutations) into mouse eggs under the control of the platelet-derived growth factor B (PDGF-B) chain gene promoter. The mice were generated on a C57BL/6 background and were developed by Molecular Therapeutics Inc. Animals were fed ad libitum and maintained by brother sister mating. The mice generated from this construct develop amyloid deposits starting at 6 months of age. Animals were aged for 6 months and then maintained for 90 days and sacrificed for amyloid quantification.
APP transgenic mice were administered vehicle or TTP4000 every other day [qod (i.p.)] for 90 days starting at 6 months of age. At the end of the experiment, animals were sacrificed and examined for Aβ plaque burden in the brain (i.e., plaque number). A 6-month control APP group was used to determine the baseline of amyloid deposits. In addition, at the end of the study, the animals were subjected to behavioral (Morris water maze) analysis. The investigators were blinded to the study compounds. Samples were given to the mice at 0.25 ml/mouse/every other day.
For histological examination, the animals were anesthetized with an intraperitoneal injection (IP) of sodium pentobarbital (50 mg/kg). The animals were transcardially perfused with 4° C., phosphate-buffered saline (PBS) followed by 4% paraformaldehyde. The brains were removed and placed in 4% paraformaldehyde over night. The brains were processed to paraffin and embedded. Ten serial 30-μm thick sections through the brain were obtained. Sections were subjected to primary antibody overnight at 4° C. (Aβ peptide antibody) in order to detect the amyloid deposits in the brain of the transgenic animals (Guo et al., J. Neurosci., 22:5900-5909 (2002)). Sections were washed in Tris-buffered saline (TBS) and secondary antibody was added and incubated for 1 hour at room temperature. After washing, the sections were incubated as instructed in the Vector ABC Elite kit (Vector Laboratories) and stained with […] (DAB). The reactions were stopped in water and cover-slipped after treatment with xylene. The amyloid area in each section was determined with a computer-assisted image analysis system, consisting of a Power Macintosh computer equipped with a Quick Capture frame grabber card, Hitachi CCD camera mounted on an Olympus microscope and camera stand. NIH Image Analysis Software, v. 1.55 was used. The images were captured and the total area of amyloid was determined over the ten sections. A single operator blinded to treatment status performed all measurements. Summing the amyloid volumes of the sections and dividing by the total number of sections was done to calculate the amyloid volume.
For quantitative analysis, an enzyme-linked immunosorbent assay (ELISA) was used to measure the levels of human total Aβ, Aβtotal and Aβ1-42 in the brains of APP transgenic mice (Biosource International, Camarillo, Calif.). Aβtotal and Aβ1-42 were extracted from mouse brains by guanidine hydrochloride and quantified as described by the manufacturer. […]

B1: TTP-4000: four domain RAGE fusion protein (SEQ ID NO: 32): human RAGE amino acids 1-251 linked to CH2 and CH3 domains of human IgG (protein)
chain: MAAGTAVGAWALVLSLWGAVVGAQNITARIGEPLVLKCKGAPKKPPQRLEWKLNTGRTEAWKVLSPQGGGPWDSVARVLPNGSLFLPAVGIQDEGIFRCQAMNRNGKETKSNYRVRVYQIPGKPEIVDSASELTAGVPNKVGTCVSEGSYPAGTLSWHLDGKPLVPNEKGVSVKEQTRRHPETGLFTLQSELMVTPARGGDPRPTFSCSFSPGLPRHRALRTAPIQPRVWEPVPLEEVQLVVEPEGGAVAPPSVFLFPPKPKDTLMISRTPEVTCVVVDVSHEDPEVKFNWYVDGVEVHNAKTKPREEQYNSTYRVVSVLTVLHQDWLNGKEYKCKVSNKALPAPIEKTISKAKGQPREPQVYTLPPSRDELTKNQVSLTCLVKGFYPSDIAVEWESNGQPENNYKTTPPVLDSDGSFFLYSKLTVDKSRWQQGNVFSCSVMHEALHNHYTQKSLSLSPGK
On to B1, for which, in data set [1], the “block of binding of fusion protein to immobilized amyloid-beta by the RAGE ligand” value was “completely inhibited”. Moreover, the “inflammatory cytokines IL-1 and TNF-α” value in data set [2] (data not shown) was “reduce”. For the same molecule, the “Aβ plaques in the brain” value in data set [2] (treated for 3 months, versus vehicle and human IgG1, FIG. 14A) is recorded as “fewer Aβ plaques”. Besides, the “cognitive dysfunction (Morris water maze)” value in data set [2] (treated for 3 months, versus vehicle and human IgG1, FIG. 14B) is listed as “less cognitive dysfunction”.
